Source: paper PMC9279676, “ERK2 MAP kinase regulates SUFU binding by multisite phosphorylation of GLI1” (Life Science Alliance, 2022)
Where a chain is given by its changes, count along the chain named.

Assays:
[1] = molecular target: T1, GST-GLI1^S102,S116 (GST-GLI1_(68-232), only S102 and S116 intact), mock treated (human, UniProt P08151-1 68-232, S70A | S86A | S130A | S146A | S201A); experiment: mock treated
T1 sequence: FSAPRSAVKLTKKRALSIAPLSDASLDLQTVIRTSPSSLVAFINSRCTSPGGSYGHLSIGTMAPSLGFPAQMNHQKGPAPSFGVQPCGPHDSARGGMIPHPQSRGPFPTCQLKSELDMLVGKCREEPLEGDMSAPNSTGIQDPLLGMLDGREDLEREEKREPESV

[2] = molecular target: T2, GST-GLI1^S116,S130 (GST-GLI1_(68-232), only S116 and S130 intact), mock treated (human, UniProt P08151-1 68-232, S70A | S86A | S102A | S146A | S201A); experiment: mock treated
T2 sequence: T1 sequence with S35A, A63S

[3] = molecular target: T3, GST-GLI1^S130, phosphorylated by ERK2 (human, UniProt P08151-1 68-232, S70A | S86A | S102A | S116A | S146A | S201A, phosphorylated by ERK2; only intact SP site S130); experiment: GLI1 phosphorylated by ERK2
T3 sequence: T1 sequence with S35A, S49A, A63S

[4] = molecular target: T4, GST-GLI1^S116,S130, phosphorylated by ERK2 (human, UniProt P08151-1 68-232, S70A | S86A | S102A | S146A | S201A, phosphorylated by ERK2; intact SP sites S116, S130); experiment: GLI1 phosphorylated by ERK2
T4 sequence: T1 sequence with S35A, A63S

[5] = molecular target: T5, GST-GLI1^S116, phosphorylated by ERK2 (human, UniProt P08151-1 68-232, S70A | S86A | S102A | S130A | S146A | S201A, phosphorylated by ERK2; only intact SP site S116); experiment: GLI1 phosphorylated by ERK2
T5 sequence: T1 sequence with S35A

[6] = molecular target: T6, GST-GLI1_(68-232), wild type, phosphorylated by ERK2 (human, UniProt P08151-1 68-232, phosphorylated by ERK2 to ∼3 mol phosphate per mole; most efficient sites Ser116 and Ser130, followed by Ser102 and Ser201); experiment: pull-down; purified GST-GLI1_(68-232) variants (mock treated or ERK2 phosphorylated), 0 or 1.25-80 nM, on glutathione-Sepharose beads; ∼1 pmol 35S-SUFU in 200 μl; 15 min at 30°C, then 1 h at room temperature; Binding Buffer (20 mM Tris-HCl pH 7.5, 125 mM KOAc, 0.5 mM EDTA, 5 mM DTT, 0.1% Tween20, 12.5% glycerol) + 1 mg/ml BSA; bound SUFU quantified by SDS-PAGE and Phosphorimager; Kd from binding isotherms; conditions: one partner purified
T6 construct: vector pGEX-LB; also called ERK2-phosphorylated GLI1; WT + ERK2; source: bacteria, purified (glutathione-Sepharose); then phosphorylated with purified active ERK2 (2 h, 30°C)
T6 sequence (looked up): T1 sequence with A3S, A19S, A63S, A79S, A134S

[7] = molecular target: T7, GST-GLI1^S130, phosphorylated by ERK2 (human, UniProt P08151-1 68-232, S70A | S86A | S102A | S116A | S146A | S201A, phosphorylated by ERK2; only intact SP site S130); experiment: as above; conditions: one partner purified
T7 construct: only the SP site S130 intact; also called ERK2-treated GLI1^S130; source: bacteria, purified (glutathione-Sepharose); then phosphorylated with purified active ERK2
T7 sequence (looked up): T1 sequence with S35A, S49A, A63S

[8] = molecular target: T8, GST-GLI1^S116, phosphorylated by ERK2 (human, UniProt P08151-1 68-232, S70A | S86A | S102A | S130A | S146A | S201A, phosphorylated by ERK2; only intact SP site S116); experiment: as above; conditions: one partner purified
T8 construct: only the SP site S116 intact; also called ERK2-treated GLI1^S116; source: bacteria, purified (glutathione-Sepharose); then phosphorylated with purified active ERK2
T8 sequence (looked up): T1 sequence with S35A

[9] = molecular target: the three “two sites only”-intact mutants, ERK2-phosphorylated; experiment: as above
[10] = molecular target: phosphorylated single and double-phosphosite mutants; experiment: as above

B1: full-length human SUFU protein, 35S-radiolabeled (natural protein, UniProt Q9UMX1-1 1-484, looked up)
chain: MAELRPSGAPGPTAPPAPGPTAPPAFASLFPPGLHAIYGECRRLYPDQPNPLQVTAIVKYWLGGPDPLDYVSMYRNVGSPSANIPEHWHYISFGLSDLYGDNRVHEFTGTDGPSGFGFELTFRLKRETGESAPPTWPAELMQGLARYVFQSENTFCSGDHVSWHSPLDNSESRIQHMLLTEDPQMQPVQTPFGVVTFLQIVGVCTEELHSAQQWNGQGILELLRTVPIAGGPWLITDMRRGETIFEIDPHLQERVDKGIETDGSNLSGVSAKCAWDDLSRPPEDDEDSRSICIGTQPRRLSGKDTEQIRETLRRGLEINSKPVLPPINPQRQNGLAHDRAPSRKDSLESDSSTAIIPHELIRTRQLESVHLKFNQESGALIPLCLRGRLLHGRHFTYKSITGDMAITFVSTGVEGAFATEEHPYAAHGPWLQILLTEEFVEKMLEDLEDLTSPEEFKLPKEYSWPEKKLKVSILPDVVFDSPLH
modifications: [35S]-methionine label
notes: human SUFU, full length, residues 1-484, from plasmid pGEM4Z-SUFU; also called 35S-SUFU; radiolabeled SUFU; source: in vitro transcription and translation (SP6, Promega), partially purified by ammonium sulfate precipitation
B1 was tested, and the Kd [1] was 6 nM, the Kd [2] was 11 nM and the Kd [3] was 16 nM. The Kd [4] was 53 nM, the Kd [5] was 36 nM and the “fold increase of Kd against unphosphorylated GLI1” value [6] was about 30 fold. For the same binder, the “fold weakening of Kd against unphosphorylated GLI1” value [6] was over 30 fold, the “fold reduction in affinity after ERK2 treatment” value [7] was 1.3 fold and the “fold increase of Kd upon phosphorylation” value [8] was 2.6 fold. For the same binder, the fold increase of Kd after ERK2-mediated phosphorylation [9] was 4.8 to 8.3 fold and the Kd [10] was 53 nM.
